Experimental findings from patent publication US7556938B1, “Nucleic acids encoding potassium channel interactors” (Millennium Pharmaceuticals, Inc., priority 1998, dated 2009) are described below.

In the assay the target is T1, rKv4.2 (Rattus norvegicus, UniProt Q63881).
T1 construct: expressed in transfected cells; host or cells: CHO cells, transient transfection with GFP co-transfected
T1 sequence (Q63881 1-630): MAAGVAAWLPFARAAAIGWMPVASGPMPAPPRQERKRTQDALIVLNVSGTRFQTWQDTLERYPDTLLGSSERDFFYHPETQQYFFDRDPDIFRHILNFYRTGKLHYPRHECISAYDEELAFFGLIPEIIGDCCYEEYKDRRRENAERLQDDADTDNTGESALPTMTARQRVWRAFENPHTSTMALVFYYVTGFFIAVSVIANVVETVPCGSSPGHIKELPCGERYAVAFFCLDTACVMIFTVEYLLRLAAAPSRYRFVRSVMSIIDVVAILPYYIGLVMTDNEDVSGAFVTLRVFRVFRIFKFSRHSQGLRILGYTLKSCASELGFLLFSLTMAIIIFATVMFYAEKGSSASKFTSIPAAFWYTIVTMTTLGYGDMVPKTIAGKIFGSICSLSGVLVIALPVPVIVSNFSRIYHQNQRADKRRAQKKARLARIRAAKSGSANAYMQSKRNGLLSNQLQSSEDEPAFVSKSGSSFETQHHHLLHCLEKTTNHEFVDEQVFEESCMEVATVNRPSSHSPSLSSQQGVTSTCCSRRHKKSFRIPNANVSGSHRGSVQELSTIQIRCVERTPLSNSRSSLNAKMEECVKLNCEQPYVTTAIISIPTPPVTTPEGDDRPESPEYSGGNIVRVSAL
In words: Patch-clamp of Kv4.2 currents in CHO cells coexpressing KChIPs. In kind it is cell-based. On the procedure:
HEK 293 and CHO cells were used for recordings 1-3 days after a transient transfection. Whole-cell currents were recorded from cells expressing GFP, identified by their green fluorescence. […] After Gigaseal and ruptured whole-cell configuration access, resistance was less than 10 MOhms. Whole-cell bath solutions were made from a 10× Hank's balanced salt solution (GibcoBRL) with the following final concentration (in mM): 138 NaCl, 5.4 KCl, 1.3 MgCl2, 1.3 CaCl2, 5.5 D-Glukos and 10 HEPES, pH 7.4. The intracellular electrode solution consisted of (in mM) 140 KCl, 10 HEPES, 10 EGTA, 0.5 MgCl2, pH 7.3. All chemicals were from Sigma (St. Louis, Mo.) or Fisher Scientific (Houston, Tex.). Membrane currents were recorded using a EPC9 patch-clamp amplifier (HEKA, Germany). Data were analyzed using Matlab (Natick, Ma), and leak subtracted if necessary. All experiments were done at room temperature.
Because PCIPs, e.g., KChIP1 (1v), KChIP2 (9ql), and KChIP3 (p19), colocalize and coassociate with Kv4 α-subunits in brain, another critical question was to determine whether these PCIPs alter the conductance properties of Kv4 channels. To address this issue, Kv4.2 and Kv4.3 were expressed alone and in combination with individual PCIPs. CHO cells were transiently-transfected with cDNA using the DOTAP lipofection method as described by the manufacturer (Boehringer Mannheim, Inc.). Transfected cells were identified by cotransfecting enhanced GFP along with the genes of interest and subsequently determining if the cells contained green GFP fluorescence. Currents in CHO cells were measured using the patch-clamp technique (Hamill et al. 1981. Pfluegers Arch. 391: 85-100).
First, the amplitude of the Kv4.2 current increased approximately 7.5 fold in the presence of KChIP1 (amplitude of Kv4.2 alone=0.60+/−0.096 nA/cell; Kv4.2+KChIP1=4.5+/−0.55 nA/cell). […] Finally, the kinetics of Kv4.2 inactivation slowed considerably when Kv4.2 was coexpressed with KChIP1 (inactivation time constant of Kv4.2 alone=28.2+/−2.6 ms; Kv4.2+KChIP1=104.1+/−10.4 ms), while channels recovered from inactivation much more rapidly in cells expressing both Kv4.2 and KChIP1 (recovery tau=53.6+/−7.6 ms) versus cells expressing Kv4.2 alone (recovery tau=272.2+/−26.1 ms).

Where [1] appears, read: rKv4.2 coexpressed with the KChIP, at 50 mV.

B1: KChIP1: Potassium channel interacting protein 1v, a Ca2+-binding protein that binds and modulates Kv4 channels (protein)
chain: MPARVLLAYPGTEMLTQGESEGLQTLGIVVVLCSSLKLLHYLGLIDLSDDKIEDDLEMTMVCHRPEGLEQLEAQTNFTKRELQVLYRGFKNECPSGVVNEETFKQIYAQFFPHGDASTYAHYLFNAFDTTQTGSVKFEDFVTALSILLRGTVHEKLRWTFNLYDINKDGYINKEEMMDIVKAIYDMMGKYTYPVLKEDTPRQHVDVFFQKMDKNKDGIVTLDEFLESCQEDDNIMRSLQLFQNVM
Consider B1, for which, for the setting “Kv4.2 coexpressed with KChIP1”, the “activation V1/2” value is recorded as −12.1+/−1.4 mV. Further, under setting [1], the “Inactivation time constant (ms, at 50 mV)” value was 104.1 ± 10.4 ms; the “Peak Current (nA/cell at 50 MV)” value is 4.5+/−0.55 nA/cell; the “Peak Current Density (pA/pF at 50 mV)” value was 306.9+/−57.9 pA/pF. Where the note is “versus Kv4.2 alone”, the “fold increase of Kv4.2 current amplitude” value is listed as “approximately 7.5 fold” and the “fold increase of Kv4.2 current density” value amounted to 12 fold.
